Data reported in US20200079848A1 (Five Prime, published 2020).
Where “and” joins values, the source holds several entries; their conditions need not be identical. Equal values may be shown once.

Assays:
hILT4-His-Avi tag [1] = molecular target: T1, hILT4-His-Avi tag (human, UniProt Q8N423 22-459); assay: SPR Biacore T200, 37 C; antibody captured by anti-human Fc on CM4 chip, hILT4-His-Avi as analyte; 1:1 Langmuir fit
T1 construct: also called monomeric human ILT4; extracellular region of hILT4 linked to a His-Avi tag
Description: The running buffer was 10 mM HEPES pH 7.4 supplemented with 0.05% Tween-20 and 1 g/L BSA. All anti-ILT4 antibodies were captured on a CM4 chip with pre-immobilized anti-human Fc capture antibody from Southern Biotech (catalog number 2081-01). […] All data were double-referenced and fitted to a 1:1 Langmuir model with mass transport using Biacore T200 Evaluation Software version 3.1.

[2] = molecular target: T2, human ILT4 (hILT4) expressed on cells (human, UniProt Q8N423 22-597); assay: flow cytometry cross-blocking on hILT4 CHO cells: unlabelled antibody titrated from 40 µg/mL, then PE-2H2.IgG1.1f at 1.5 µg/mL; competitor: PE-2H2; GMFI (PE) falls from about 310 to about 45; the table calls the value EC50 and has no unit, the concentration axis is in µg/mL
T2 construct: hILT4 on transfected CHO or 293T cells, or native on human monocytes and macrophages; also called LILRB2
Excerpt: (§1) After washing, the samples were acquired on a FACSCanto™ cytometer (BD Bioscience, San Jose) and analyzed with Flowjo™ software (Tree Star, Inc, Ashland, Oreg.).

rhILT4-Fc [3] = molecular target: T3, rhILT4-Fc (human, UniProt Q8N423-1 22-461); assay: flow cytometry blocking assay: antibody titrated (12 points) with rhILT4-Fc fixed at 30 µg/ml; rhILT4-Fc bound to HLA-B overexpressing CHO cells read as % Positive; blocked ligand: HLA-B; the IC50 table has no unit, the concentration axis is in ug/mL
T3 construct: also called rhILT4-Fc fusion protein with a murine Fc tail; not shown: murine Fc tail

[4] = molecular target: T2, human ILT4 (hILT4) expressed on cells; assay: flow cytometry on hILT4-transfected CHO cells, PE anti-human IgG secondary, GMFI (PE); EC50 from the table below the graph; the table has no unit, the concentration axis is in ug/mL
rhILT4-Fc [5] = molecular target: T3, rhILT4-Fc; assay: flow cytometry blocking assay: antibody titrated (12 points) with rhILT4-Fc fixed at 30 µg/ml; rhILT4-Fc bound to HLA-A overexpressing CHO cells read as % Positive; blocked ligand: HLA-A; the IC50 table has no unit, the concentration axis is in ug/mL
human LILRA3 = molecular target: T4, human LILRA3 (human, UniProt Q8N6C8 24-439); assay: flow cytometry, 293T transfectants, antibody 20 µg/ml; stacked histograms, control: parental cells
T4 construct: whole, on cells; also called hLILRA3; LIRA3
Description: (§2) Individual ILT family members were overexpressed in 293T cells. Each transfectant was stained with 20 μg/ml of anti-ILT4 antibodies followed by 1 μg/ml of anti-human IgG secondary mAb. Binding of the antibodies to each transfectant was measured by flow cytometry.

human LILRA4 = molecular target: T5, human LILRA4 (human, UniProt P59901 24-499); assay: as above
T5 construct: whole, on cells; also called hLILRA4
Description: as §2

human LILRA5 = molecular target: T6, human LILRA5 (human, UniProt A6NI73 42-299); assay: as above
T6 construct: whole, on cells; also called hLILRA5
Description: as §2

human LILRA6 = molecular target: T7, human LILRA6 (human, UniProt Q6PI73 24-481); assay: as above
T7 construct: whole, on cells; also called hLILRA6
Description: as §2

human ILT3 = molecular target: T8, human ILT3 (human, UniProt Q8NHJ6 22-448); assay: as above
T8 construct: whole, on cells; also called hILT3
Description: as §2

human ILT5 = molecular target: T9, human ILT5 (human, UniProt O75022 24-631); assay: as above
T9 construct: whole, on cells; also called hILT5; LILRB3
Description: as §2

human ILT2 = molecular target: T10, human ILT2 (human, UniProt Q8NHL6 24-650); assay: as above
T10 construct: whole, on cells; also called hILT2
Description: as §2

human LIR8 = molecular target: T11, human LIR8 (human, UniProt O75023 24-590); assay: as above
T11 construct: whole, on cells; also called hLIR8
Description: as §2

human LILRA2 = molecular target: T12, human LILRA2 (human, UniProt Q8N149 24-483); assay: as above
T12 construct: whole, on cells; also called hLILRA2
Description: as §2

human LILRA1 = molecular target: T13, human LILRA1 (human, UniProt O75019 17-489); assay: as above
T13 construct: whole, on cells; also called hLILRA1; LIRA1
Description: as §2

[6] = molecular target: T2, human ILT4 (hILT4) expressed on cells; assay: flow cytometry on human monocytes of a healthy donor, directly labelled antibody, GMFI; EC50 from the table below the graph; the table has no unit, the concentration axis is in ug/mL
Excerpt: In FIG. 18B, monocytes selected from a normal healthy donor's peripheral blood were stained with individual anti-ILT4 antibodies conjugated to […].

[7] = molecular target: T2, human ILT4 (hILT4) expressed on cells; assay: flow cytometry cross-blocking on hILT4 CHO cells: unlabelled antibody titrated from 40 µg/mL, then PE-21D9.IgG1.1f at 1.5 µg/mL; competitor: PE-21D9; GMFI (PE) falls from about 595 to about 60; the table calls the value EC50 and has no unit, the concentration axis is in µg/mL
Excerpt: as §1

hILT4-His-Avi tag [8] = molecular target: T1, hILT4-His-Avi tag; assay: SPR Biacore T200, 37 C; antibody captured on protein A/G chip, monomeric hILT4 as analyte; steady state fit
Description: (§3) The binding kinetics of the parent and germline reversion mutant anti-hILT4 antibodies (in the context of IgG1.3) were measured via Surface Plasmon Resonance (SPR) using a Biacore® T200 instrument. The assay temperature was 37° C. and the running buffer was PBS pH 7.4 supplemented with 0.05% Tween-20. Allanti-hILT4 antibodies were captured on a CM4 chip with pre-immobilized protein A/G (Pierce Thermo Scientific catalog number 21186). […] Monomeric human ILT4 was injected as analyte. […] The hILT4 used in this experiment, comprising the extracellular region of hILT4 linked to a His-Avi tag, consists of the following amino acid sequence: […]

hILT4-His-Avi tag [9] = molecular target: T1, hILT4-His-Avi tag; assay: SPR Biacore T200, 37 C; antibody captured on protein A/G chip, monomeric hILT4 as analyte; kinetic fit
Description: as §3

rhILT4-Fc [10] = molecular target: T3, rhILT4-Fc; assay: flow cytometry blocking assay: antibody titrated (12 points) with rhILT4-Fc fixed at 30 µg/ml; rhILT4-Fc bound to HLA-A overexpressing CHO cells read as % Positive; blocked ligand: HLA-A; the IC50 table has no unit, the concentration axis is in ug/mL; remark: listed apart in the source
rhILT4-Fc [11] = molecular target: T3, rhILT4-Fc; assay: flow cytometry blocking assay: antibody titrated (12 points) with rhILT4-Fc fixed at 30 µg/ml; rhILT4-Fc bound to HLA-B overexpressing CHO cells read as % Positive; blocked ligand: HLA-B; the IC50 table has no unit, the concentration axis is in ug/mL; remark: listed apart in the source
[12] = molecular target: T2, human ILT4 (hILT4) expressed on cells; assay: antibody titration flow cytometry binding assay on transfected cells, nonlinear regression

T1 sequence (Q8N423 other isoform, or with tags, fused parts or gaps): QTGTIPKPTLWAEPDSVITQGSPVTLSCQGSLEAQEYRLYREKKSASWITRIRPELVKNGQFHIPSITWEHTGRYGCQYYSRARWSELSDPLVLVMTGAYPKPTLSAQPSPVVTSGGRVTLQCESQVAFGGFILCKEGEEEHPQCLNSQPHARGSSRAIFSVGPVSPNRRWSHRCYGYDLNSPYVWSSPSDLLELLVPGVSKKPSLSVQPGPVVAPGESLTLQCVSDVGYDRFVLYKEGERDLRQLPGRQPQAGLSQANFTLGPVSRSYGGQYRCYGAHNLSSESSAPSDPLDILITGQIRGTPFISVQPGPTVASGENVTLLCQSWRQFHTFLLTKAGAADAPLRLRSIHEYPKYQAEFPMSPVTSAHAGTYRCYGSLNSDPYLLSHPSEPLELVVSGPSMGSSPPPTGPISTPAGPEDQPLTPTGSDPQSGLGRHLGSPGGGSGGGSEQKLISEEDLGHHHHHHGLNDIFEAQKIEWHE
T3 sequence (Q8N423 other isoform, or with tags, fused parts or gaps): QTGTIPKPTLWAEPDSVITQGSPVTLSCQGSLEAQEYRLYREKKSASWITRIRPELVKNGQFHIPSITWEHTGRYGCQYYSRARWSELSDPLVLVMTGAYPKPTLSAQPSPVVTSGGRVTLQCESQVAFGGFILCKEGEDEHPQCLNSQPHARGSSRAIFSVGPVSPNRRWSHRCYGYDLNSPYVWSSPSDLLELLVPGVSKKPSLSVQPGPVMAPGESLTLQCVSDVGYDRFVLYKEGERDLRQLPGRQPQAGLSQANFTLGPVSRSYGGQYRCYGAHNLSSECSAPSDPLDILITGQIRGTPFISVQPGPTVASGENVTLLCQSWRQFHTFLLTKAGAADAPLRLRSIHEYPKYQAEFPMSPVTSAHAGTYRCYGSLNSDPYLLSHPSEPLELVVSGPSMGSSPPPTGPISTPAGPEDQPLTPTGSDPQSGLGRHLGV
T2 sequence (Q8N423 other isoform, or with tags, fused parts or gaps): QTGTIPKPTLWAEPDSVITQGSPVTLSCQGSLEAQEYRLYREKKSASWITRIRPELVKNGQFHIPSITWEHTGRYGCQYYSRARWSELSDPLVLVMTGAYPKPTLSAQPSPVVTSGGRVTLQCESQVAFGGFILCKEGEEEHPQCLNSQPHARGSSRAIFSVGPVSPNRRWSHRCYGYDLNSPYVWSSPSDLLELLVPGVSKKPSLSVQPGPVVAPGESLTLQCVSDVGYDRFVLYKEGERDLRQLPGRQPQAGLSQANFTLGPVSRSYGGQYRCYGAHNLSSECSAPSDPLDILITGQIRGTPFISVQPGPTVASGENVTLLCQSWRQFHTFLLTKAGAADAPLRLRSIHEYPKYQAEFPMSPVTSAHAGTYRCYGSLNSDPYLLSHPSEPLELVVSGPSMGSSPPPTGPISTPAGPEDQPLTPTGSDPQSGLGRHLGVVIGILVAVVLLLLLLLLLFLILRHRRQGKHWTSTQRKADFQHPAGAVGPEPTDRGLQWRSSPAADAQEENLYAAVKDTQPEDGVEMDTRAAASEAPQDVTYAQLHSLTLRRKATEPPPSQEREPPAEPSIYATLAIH
T11 sequence (O75023 24-590): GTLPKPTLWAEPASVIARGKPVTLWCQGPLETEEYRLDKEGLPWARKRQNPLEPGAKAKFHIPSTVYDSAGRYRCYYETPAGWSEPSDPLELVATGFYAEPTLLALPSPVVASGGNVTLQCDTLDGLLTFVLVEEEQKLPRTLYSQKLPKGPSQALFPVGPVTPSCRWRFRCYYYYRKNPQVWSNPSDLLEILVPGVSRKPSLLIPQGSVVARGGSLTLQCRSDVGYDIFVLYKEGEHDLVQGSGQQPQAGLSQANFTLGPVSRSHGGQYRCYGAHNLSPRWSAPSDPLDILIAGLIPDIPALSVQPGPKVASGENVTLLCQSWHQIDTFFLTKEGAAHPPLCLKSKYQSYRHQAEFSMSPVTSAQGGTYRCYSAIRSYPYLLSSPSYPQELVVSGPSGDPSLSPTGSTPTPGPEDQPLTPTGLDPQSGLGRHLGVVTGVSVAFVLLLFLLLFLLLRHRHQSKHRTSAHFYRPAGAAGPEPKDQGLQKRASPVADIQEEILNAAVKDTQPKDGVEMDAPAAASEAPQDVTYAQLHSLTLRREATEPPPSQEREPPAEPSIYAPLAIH
T5 sequence (P59901 24-499): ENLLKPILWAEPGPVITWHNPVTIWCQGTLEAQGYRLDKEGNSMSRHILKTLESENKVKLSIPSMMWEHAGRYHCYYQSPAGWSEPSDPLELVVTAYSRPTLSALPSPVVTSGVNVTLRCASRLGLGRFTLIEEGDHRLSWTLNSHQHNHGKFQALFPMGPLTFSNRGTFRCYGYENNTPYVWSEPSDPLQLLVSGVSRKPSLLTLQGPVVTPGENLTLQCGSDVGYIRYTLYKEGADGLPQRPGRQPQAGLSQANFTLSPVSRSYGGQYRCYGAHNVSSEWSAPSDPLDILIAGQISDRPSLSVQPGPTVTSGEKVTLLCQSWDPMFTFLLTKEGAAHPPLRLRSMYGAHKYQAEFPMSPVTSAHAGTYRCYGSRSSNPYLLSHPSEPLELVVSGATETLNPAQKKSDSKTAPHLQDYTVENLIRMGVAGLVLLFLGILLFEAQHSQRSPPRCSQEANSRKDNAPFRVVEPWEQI
T12 sequence (Q8N149 24-483): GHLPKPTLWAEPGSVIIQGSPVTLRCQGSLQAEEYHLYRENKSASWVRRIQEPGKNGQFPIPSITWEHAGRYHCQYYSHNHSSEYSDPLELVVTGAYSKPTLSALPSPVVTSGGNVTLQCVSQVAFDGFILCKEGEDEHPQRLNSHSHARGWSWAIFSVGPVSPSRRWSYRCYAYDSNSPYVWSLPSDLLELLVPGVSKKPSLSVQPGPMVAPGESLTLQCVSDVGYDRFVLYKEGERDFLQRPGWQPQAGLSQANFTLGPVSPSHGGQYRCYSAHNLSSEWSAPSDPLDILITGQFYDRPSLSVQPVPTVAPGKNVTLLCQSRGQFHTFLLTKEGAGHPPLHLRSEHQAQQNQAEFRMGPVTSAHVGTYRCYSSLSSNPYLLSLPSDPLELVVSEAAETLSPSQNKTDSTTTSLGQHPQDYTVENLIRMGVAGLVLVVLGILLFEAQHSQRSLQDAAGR
T4 sequence (Q8N6C8 24-439): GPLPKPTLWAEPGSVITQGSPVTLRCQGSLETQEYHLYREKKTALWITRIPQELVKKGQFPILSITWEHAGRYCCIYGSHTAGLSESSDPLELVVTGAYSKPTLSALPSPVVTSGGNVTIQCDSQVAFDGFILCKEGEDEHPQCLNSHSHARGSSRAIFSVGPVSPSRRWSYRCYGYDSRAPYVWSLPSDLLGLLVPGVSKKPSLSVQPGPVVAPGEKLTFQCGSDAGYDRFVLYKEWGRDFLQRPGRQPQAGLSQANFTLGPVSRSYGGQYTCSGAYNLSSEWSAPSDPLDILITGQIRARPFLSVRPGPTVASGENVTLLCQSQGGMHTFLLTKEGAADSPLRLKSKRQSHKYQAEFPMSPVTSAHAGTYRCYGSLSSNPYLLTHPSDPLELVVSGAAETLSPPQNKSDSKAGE
T10 sequence (Q8NHL6 24-650): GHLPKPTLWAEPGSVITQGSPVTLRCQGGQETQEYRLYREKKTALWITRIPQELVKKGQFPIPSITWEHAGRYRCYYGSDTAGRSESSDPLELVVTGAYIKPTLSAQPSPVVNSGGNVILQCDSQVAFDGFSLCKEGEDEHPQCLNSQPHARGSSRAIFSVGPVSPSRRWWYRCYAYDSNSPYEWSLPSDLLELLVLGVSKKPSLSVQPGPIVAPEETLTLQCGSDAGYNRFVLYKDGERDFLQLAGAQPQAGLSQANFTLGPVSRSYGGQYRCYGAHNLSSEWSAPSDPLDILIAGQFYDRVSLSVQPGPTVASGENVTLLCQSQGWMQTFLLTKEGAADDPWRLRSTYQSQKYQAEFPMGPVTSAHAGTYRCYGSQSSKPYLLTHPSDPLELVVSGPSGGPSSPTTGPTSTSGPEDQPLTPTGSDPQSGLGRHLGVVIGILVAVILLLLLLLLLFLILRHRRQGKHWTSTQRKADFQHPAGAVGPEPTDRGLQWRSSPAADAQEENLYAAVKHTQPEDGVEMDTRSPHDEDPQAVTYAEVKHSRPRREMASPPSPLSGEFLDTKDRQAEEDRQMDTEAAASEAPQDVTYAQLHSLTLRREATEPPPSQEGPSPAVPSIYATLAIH
T7 sequence (Q6PI73 24-481): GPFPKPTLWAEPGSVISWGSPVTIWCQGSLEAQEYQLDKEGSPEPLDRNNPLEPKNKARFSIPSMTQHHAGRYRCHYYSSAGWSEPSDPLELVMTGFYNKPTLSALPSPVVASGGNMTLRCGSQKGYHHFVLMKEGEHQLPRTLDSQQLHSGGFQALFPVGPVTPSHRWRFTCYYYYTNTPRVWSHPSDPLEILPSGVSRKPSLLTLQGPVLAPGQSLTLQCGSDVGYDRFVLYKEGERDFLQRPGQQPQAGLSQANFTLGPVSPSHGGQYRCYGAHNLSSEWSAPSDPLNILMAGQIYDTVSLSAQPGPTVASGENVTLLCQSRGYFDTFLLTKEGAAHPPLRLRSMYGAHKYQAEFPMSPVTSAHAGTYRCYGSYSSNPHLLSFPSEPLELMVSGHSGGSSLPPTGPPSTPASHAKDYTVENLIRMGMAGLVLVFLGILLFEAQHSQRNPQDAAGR
T13 sequence (O75019 17-489): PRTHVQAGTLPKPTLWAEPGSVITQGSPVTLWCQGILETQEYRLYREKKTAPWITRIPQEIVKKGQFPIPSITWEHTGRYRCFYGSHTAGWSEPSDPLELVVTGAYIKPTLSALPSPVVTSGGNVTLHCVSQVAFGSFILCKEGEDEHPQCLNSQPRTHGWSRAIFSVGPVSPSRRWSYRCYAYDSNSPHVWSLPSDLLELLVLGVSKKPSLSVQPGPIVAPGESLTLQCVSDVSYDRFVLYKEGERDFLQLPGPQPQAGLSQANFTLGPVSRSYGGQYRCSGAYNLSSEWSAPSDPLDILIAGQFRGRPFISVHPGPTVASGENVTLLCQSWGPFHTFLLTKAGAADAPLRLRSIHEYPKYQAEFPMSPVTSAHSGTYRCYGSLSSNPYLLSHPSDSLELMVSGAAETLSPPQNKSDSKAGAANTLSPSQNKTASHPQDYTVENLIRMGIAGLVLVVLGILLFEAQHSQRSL

Row | binding result (human LILRA3) | binding result (human LILRA4) | binding result (human LILRA6) | binding result (human ILT3) | binding result (human ILT5) | binding result (human ILT2) | binding result (human LIR8) | binding result (human LILRA2) | binding result (human LILRA1) | Binder | further results
1 | no binding (tested: 20 µg/ml) | no binding (tested: 20 µg/ml) | no binding (tested: 20 µg/ml) | no binding (tested: 20 µg/ml) | no binding (tested: 20 µg/ml) | no binding (tested: 20 µg/ml) | no binding (tested: 20 µg/ml) | no binding (tested: 20 µg/ml) | no binding (tested: 20 µg/ml) | 10F10.IgG1.3 (antibody, V domains shown, Fully human antibody, IgG1.3 heavy chain constant region (L234A, L235E, G237A), kappa light chain; also called 10F10 WT; ILT4.10.IgG1.3) VH: QVQLVESGGGVVQPGRSLRLSCAASGFTFSSYAMHWVRQAPGKGLEWVAIISYDEYNKYYADSVKGRFTISRDNSKNTLYLQMNSLRAEDTAVYYCAREWVGIRYWGQGTLVTVSS VL: AIQLTQSPSSLSASVGDRVTITCRASQGISSALAWFQQKPGKAPKLLIYDASSLESGVPSRFTGSGSGTDFTLTISSLQPEDFATYYCQQFNSYPITFGQGTRLEIKR | Kd (hILT4-His-Avi tag [1]): 22 nM; app. act. (hILT4-His-Avi tag [1]): 100%; koff (hILT4-His-Avi tag [1]): 0.026 s⁻¹; kon (hILT4-His-Avi tag [1]): 1.2e+06 M⁻¹ s⁻¹; EC50 [2]: 0.0279 µg/mL; IC50 (rhILT4-Fc [3]): 1.55 µg/mL; EC50 [4]: 0.015 µg/mL; IC50 (rhILT4-Fc [5]): 3.6 µg/mL; binding result (human LILRA5): no binding (tested: 20 µg/ml); EC50 [6]: 0.131 µg/mL; EC50 [7]: 0.0492 µg/mL; Kd (hILT4-His-Avi tag [8]): 19 nM and 18 nM; Kd (hILT4-His-Avi tag [9]): 14 nM and 15 nM; koff (hILT4-His-Avi tag [9]): 0.023 s⁻¹ and 0.02 s⁻¹; kon (hILT4-His-Avi tag [9]): 1.6e+06 M⁻¹ s⁻¹ and 1.3e+06 M⁻¹ s⁻¹
2 | no binding (tested: 20 µg/ml) | no binding (tested: 20 µg/ml) | no binding (tested: 20 µg/ml) | no binding (tested: 20 µg/ml) | no binding (tested: 20 µg/ml) | no binding (tested: 20 µg/ml) | no binding (tested: 20 µg/ml) | no binding (tested: 20 µg/ml) | no binding (tested: 20 µg/ml) | 21D9.IgG1.1f (antibody, Parent 21D9 in IgG1.1f (L234A, L235E, G237A, A330S, P331S); also called ILT4.6.IgG1.1) heavy: EGQLLESGGDLVQPGGSLRLSCATSGFTFSNYAMNWVRQAPGKGLEWISVISVSGGSTYYADSVKGRFTISRDNSKNTLYLQMNSLRAEDTAVYYCAKDYYYDSGSYYDSFFDYWGQGTLVTVSSASTKGPSVFPLAPSSKSTSGGTAALGCLVKDYFPEPVTVSWNSGALTSGVHTFPAVLQSSGLYSLSSVVTVPSSSLGTQTYICNVNHKPSNTKVDKRVEPKSCDKTHTCPPCPAPEAEGAPSVFLFPPKPKDTLMISRTPEVTCVVVDVSHEDPEVKFNWYVDGVEVHNAKTKPREEQYNSTYRVVSVLTVLHQDWLNGKEYKCKVSNKALPSSIEKTISKAKGQPREPQVYTLPPSREEMTKNQVSLTCLVKGFYPSDIAVEWESNGQPENNYKTTPPVLDSDGSFFLYSKLTVDKSRWQQGNVFSCSVMHEALHNHYTQKSLSLSPGK light: not shown | IC50 (rhILT4-Fc [10]): 2.88 µg/mL; IC50 (rhILT4-Fc [11]): 0.918 µg/mL; EC50 [12]: 0.046 µg/mL
